Among the data in US20240116985A1, “STAPLED PEPTIDES AND METHODS THEREOF” (priority 2020, published 2024) are DLD1 reporter assay Abs IC50, IC50 and EC50 values, retold here.

Starred links: 1 amine or outer side, 2 acyl side, 3 side chain; linkers in the order of their positions; H or OH if unused. Positions of bridges follow the written chain, without caps; N, C: chain ends. Non-standard residues stand in square brackets, D forms with d. Primed or numbered codes have the meaning given here. PyrS2″ = (S)-3-amino-1-((pent-4-en-1-yloxy)carbonyl)pyrrolidine-3-carboxylic acid (stapling residue), C=CCCCOC(=O)N1CC[C@@](N[*:1])(C(=O)[*:2])C1; B5(16) = 2-amino-2-(pent-4-en-1-yl)hept-6-enoic acid = 2,2-bis(4-pentenyl)glycine (stitching residue), C=CCCCC(CCCC=C)(N[*:1])C(=O)[*:2]; B5(30) = 2-amino-2-(pent-4-en-1-yl)hept-6-enoic acid (2,2-bis(4-pentenyl)glycine, stitching residue), C=CCCCC(CCCC=C)(N[*:1])C(=O)[*:2]; B5(4) = 2,2-bis(4-pentenyl)glycine = 2-amino-2-(pent-4-en-1-yl)hept-6-enoic acid (stitching residue), C=CCCCC(CCCC=C)(N[*:1])C(=O)[*:2]; B5(5) = 2,2-bis(4-pentenyl)glycine, 2-amino-2-(pent-4-en-1-yl)hept-6-enoic acid (stitching residue), C=CCCCC(CCCC=C)(N[*:1])C(=O)[*:2]; PyrS2 = (S)-3-amino-1-((pent-4-en-1-yloxy)carbonyl)pyrrolidine-3-carboxylic acid, C=CCCCOC(=O)N1CC[C@@](N[*:1])(C(=O)[*:2])C1; B5(12) = 2-amino-2-(pent-4-en-1-yl)hept-6-enoic acid (two olefin side chains), C=CCCCC(CCCC=C)(N[*:1])C(=O)[*:2]; B5(3) = 2,2-bis(4-pentenyl)glycine (stitching residue), C=CCCCC(CCCC=C)(N[*:1])C(=O)[*:2]; Phe(3-COOH) = N[C@@H](Cc1cccc(C(=O)O)c1)C(=O)O; Phe(2-CF3) = N[C@@H](Cc1ccccc1C(F)(F)F)C(=O)O; Phe(2-Cl) = N[C@@H](Cc1ccccc1Cl)C(=O)O; Bta = N[C@@H](Cc1csc2ccccc12)C(=O)O; Lys(iPr) = CC(C)NCCCC[C@H](N)C(=O)O; αAllylPro = C=CC[C@@]1(C(=O)O)CCCN1; tBuAla = CC(C)(C)C[C@H](N)C(=O)O; 3Thi = N[C@@H](Cc1ccsc1)C(=O)O; Cha = N[C@@H](CC1CCCCC1)C(=O)O; S8 = C=CCCCCCC[C@](C)(N)C(=O)O; Thr(ol) = C[C@@H](O)[C@H](N)CO; PyrS2(4) = not defined here

Assay [1] deals with full-length beta-Catenin (Uniprot ID P35222) (Homo sapiens (Human)) (UniProt P35222). Put plainly: cell-based or functional assay.
Target sequence in this assay (P35222 2-781 limits assumed): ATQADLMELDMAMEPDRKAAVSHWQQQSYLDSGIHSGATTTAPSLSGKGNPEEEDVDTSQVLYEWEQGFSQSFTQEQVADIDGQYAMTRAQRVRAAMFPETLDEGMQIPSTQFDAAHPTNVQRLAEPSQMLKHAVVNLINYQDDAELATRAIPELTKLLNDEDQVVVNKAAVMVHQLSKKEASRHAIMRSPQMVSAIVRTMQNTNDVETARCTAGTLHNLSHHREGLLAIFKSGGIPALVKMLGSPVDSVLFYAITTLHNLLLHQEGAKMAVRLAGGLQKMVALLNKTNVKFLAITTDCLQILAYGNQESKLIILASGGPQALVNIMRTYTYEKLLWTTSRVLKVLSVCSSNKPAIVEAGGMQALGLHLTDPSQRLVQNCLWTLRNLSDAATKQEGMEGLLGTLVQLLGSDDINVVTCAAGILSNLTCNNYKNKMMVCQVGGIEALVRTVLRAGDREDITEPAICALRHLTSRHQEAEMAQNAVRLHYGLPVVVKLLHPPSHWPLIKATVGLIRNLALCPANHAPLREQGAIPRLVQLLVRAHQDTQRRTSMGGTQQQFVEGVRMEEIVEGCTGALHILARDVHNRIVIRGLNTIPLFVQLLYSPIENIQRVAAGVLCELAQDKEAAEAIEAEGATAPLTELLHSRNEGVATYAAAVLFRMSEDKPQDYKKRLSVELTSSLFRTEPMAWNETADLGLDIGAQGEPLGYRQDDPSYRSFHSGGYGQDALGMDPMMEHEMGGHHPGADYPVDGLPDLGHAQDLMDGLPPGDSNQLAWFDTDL
The target of assay [2] is Bcat-Halo (UniProt P35222). The assay can be described thus: NanoBRET Abs IC50 in HEK293 cells; Bcat-Halo with TCF4-Luc as competitor.
Assay [3] concerns the target full-length beta-Catenin (Uniprot ID P35222) (Homo sapiens (Human)) (UniProt P35222). The assay can be described thus: fluorescence polarization competition; full-length beta-catenin + 5FAM-TCF4(10-53) probe as competitor. (In fluorescence polarisation assays a small probe gives low polarisation when free and higher when bound to something large.)
Target sequence in this assay (P35222 2-781 limits assumed): as above
Assay [4] has the same target. The assay can be described thus: fluorescence polarization competition; peptide titrated against 10 nM full-length beta-catenin + 10 nM 5FAM-TCF4(10-53).
Target sequence in this assay (P35222 2-781 limits assumed): as above
Assay [5] shares this target. The assay can be described thus: fluorescence polarization competition; full-length beta-catenin + 5FAM-TCF4 10-53 probe.
Target sequence in this assay (P35222 2-781 limits assumed): as above
The target is the same in assay [6]. The assay can be described thus: fluorescence polarization competition; full-length beta-catenin, competitor 5FAM-TCF4(10-53) probe.
Target sequence in this assay (P35222 2-781 limits assumed): as above
Assay [7] has the same target. Put plainly: fluorescence polarization competition; full-length beta-catenin + 5FAM-TCF4(10-53) probe.
Target sequence in this assay (P35222 whole entry, one chain of several): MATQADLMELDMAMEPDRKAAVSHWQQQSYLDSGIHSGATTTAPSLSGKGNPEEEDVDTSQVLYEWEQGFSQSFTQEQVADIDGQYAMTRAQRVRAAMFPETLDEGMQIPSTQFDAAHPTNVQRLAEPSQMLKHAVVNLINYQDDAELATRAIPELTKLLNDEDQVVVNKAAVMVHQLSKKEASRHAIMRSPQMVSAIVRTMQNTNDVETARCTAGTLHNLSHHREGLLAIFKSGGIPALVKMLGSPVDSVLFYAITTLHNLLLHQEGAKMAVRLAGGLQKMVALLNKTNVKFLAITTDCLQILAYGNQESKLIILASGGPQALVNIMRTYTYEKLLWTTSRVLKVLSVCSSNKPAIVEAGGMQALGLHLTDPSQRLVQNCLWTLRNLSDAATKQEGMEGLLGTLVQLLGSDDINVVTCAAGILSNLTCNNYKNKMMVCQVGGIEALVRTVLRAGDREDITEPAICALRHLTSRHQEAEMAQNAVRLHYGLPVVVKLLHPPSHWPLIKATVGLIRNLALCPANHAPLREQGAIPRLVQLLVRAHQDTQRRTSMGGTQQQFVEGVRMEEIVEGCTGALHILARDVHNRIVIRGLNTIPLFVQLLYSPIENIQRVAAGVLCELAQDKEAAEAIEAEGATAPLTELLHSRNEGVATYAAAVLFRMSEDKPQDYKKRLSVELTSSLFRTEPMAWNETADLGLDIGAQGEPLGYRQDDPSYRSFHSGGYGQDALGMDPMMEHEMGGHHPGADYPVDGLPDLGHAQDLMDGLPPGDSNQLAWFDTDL
Assay [8] shares this target. The assay can be described thus: fluorescence polarization competition; peptide titrated against 5FAM-TCF4(10-53) bound to full-length beta-catenin.
Target sequence in this assay (P35222 whole entry, one chain of several): as above
For assay [9], the target named is Bcat-Halo (UniProt P35222). Put plainly: NanoBRET absolute IC50 in HEK293 cells; Bcat-Halo, competitor TCF4-Luc. On the technique in general: BRET reads energy transfer from a luciferase to a nearby fluorophore.
Assay [10] addresses full-length beta-Catenin (Uniprot ID P35222) (Homo sapiens (Human)) (UniProt P35222). Put plainly: fluorescence polarization competition; full-length beta-catenin, competitor 5FAM-TCF4 10-53.
Target sequence in this assay (P35222 whole entry, one chain of several): as above
Assay [11] concerns the target Bcat-Halo (UniProt P35222). The assay can be described thus: NanoBRET Abs IC50, HEK293 cells transfected with Bcat-Halo and TCF4-Luc (competitor: TCF4-Luc); cellular assay.
Assay [12] addresses full-length beta-Catenin (Uniprot ID P35222) (Homo sapiens (Human)) (UniProt P35222). The assay can be described thus: fluorescence polarization competition; 10 nM full-length beta-catenin + 10 nM 5FAM-TCF4 10-53 as competitor probe.
Target sequence in this assay (P35222 2-781 limits assumed): as the sequence (P35222 2-781 limits assumed) above
Assay [13] shares this target. Put plainly: fluorescence polarization competition; full-length beta-catenin with 5FAM-TCF4(10-53) probe, peptide titrated.
Target sequence in this assay (P35222 whole entry, one chain of several): as the sequence (P35222 whole entry, one chain of several) above
Assay [14] shares this target. Put plainly: FP competition, full-length beta-catenin, competitor probe 5FAM-TCF4 10-53.

What is called IC50 is the concentration that inhibits the measured activity by half. Usually EC50 stands for the concentration giving half of the maximal effect.

Bcat-Halo, sequence (P35222 whole entry): as the sequence (P35222 whole entry, one chain of several) above

In turn, Ac-[αAllylPro]D[tBuAla][B5(3)]DDAAFT[S8][Phe(2-Cl)][Bta]Q-NH2 (staple 1-4, 4-11; also: later eluting staple isomer) [I-1087] yielded a DLD1 reporter assay Abs IC50 in [1] above 20000 nM. The concentration for half-maximal inhibition (IC50) with Bcat-Halo [2] worked out at 9300 nM; in assay [4], 9 nM. For the same molecule, in assay [3], the EC50 came out at 9 nM.

For the molecule Ac-[αAllylPro]D[Cha][B5(5)]DDAAFL[PyrS2″][Phe(2-Cl)][Bta][Thr(ol)] (staple 1-4, 4-11) [I-1307], the IC50 in [5] was determined as 21 nM. The molecule also returned a concentration giving a half-maximal response (EC50) in assay [6] of 21 nM.

As for Ac-[αAllylPro]N[tBuAla][B5(5)]DDAAFL[PyrS2][3Thi][Bta][Thr(ol)] (staple 1-4, 4-11) [I-1304], the 50% inhibitory concentration (IC50) in assay [5] was 31 nM. In addition, in assay [7], the concentration giving a half-maximal response (EC50) turned out to be 31 nM.

B1: I-1891 (peptide)
peptide: Ac-[αAllylPro]D[tBuAla][B5(5)]DRAAFN[PyrS2][3Thi][Bta]Q-NH2
modifications: staple 1-4, 4-11; not fully specified; printed as Ac-PL3-Asp-Npg-B5-Asp-Arg-Ala-Ala-Phe-Asn-PyrS2-3Thi-BztA-Gln-NH2
Turning to B1, the half-maximal inhibitory concentration (IC50) in assay [8] stood at 40 nM.

B2: I-1909 (peptide)
peptide: Ac-[αAllylPro]D[tBuAla][B5(12)]D[Phe(3-COOH)][Lys(iPr)]AFL[PyrS2(4)][3Thi][Bta]F-NH2
modifications: staple 1-4, 4-11; not fully specified; printed as Ac-PL3-Asp-Npg-B5-Asp-3COOHF-iPrLys-Ala-Phe-Leu-PyrS2-3Thi-BztA-Phe-NH2; reading uncertain
On to B2, for which, in [8], the IC50 was 29 nM.

In turn, Ac-[αAllylPro]D[tBuAla][B5(30)]NRAAFN[PyrS2][3Thi][Bta]Q-NH2 (staple 1-4, 4-11; also: earlier-eluting HPLC isomer) [I-1892] displayed a half-maximal inhibitory concentration (IC50) in [8] of 1420 nM.

Take Ac-[αAllylPro]D[tBuAla][B5(5)]EDAAFN[PyrS2″][Phe(2-Cl)][Bta][dT]-NH2 (staple 1-4, 4-11) [I-1030]: the DLD1 reporter assay Abs IC50 in assay [1] is above 20000 nM. Besides, the 50% inhibitory concentration (IC50) with Bcat-Halo [9] is above 20000 nM; in assay [10], 507 nM; in the assay with Bcat-Halo [11], above 20000 nM. Further, the concentration for a half-maximal effect (EC50) in [12] worked out at 507 nM.

B3: I-1911 (peptide)
peptide: Ac-[αAllylPro]D[tBuAla][B5(12)]D[Phe(3-COOH)]KAFL[PyrS2(4)][3Thi][Bta]F-NH2
modifications: staple 1-4, 4-11; not fully specified; printed as Ac-PL3-Asp-Npg-B5-Asp-3COOHF-Lys-Ala-Phe-Leu-PyrS2-3Thi-BztA-Phe-NH2; reading uncertain
The molecule B3 returned a half-inhibitory concentration (IC50) in assay [8] of 38 nM.

Turning to Ac-[αAllylPro]D[Cha][B5(5)]DTAAFT[PyrS2″][Phe(2-Cl)][Bta][Thr(ol)] (staple 1-4, 4-11) [I-1310], the half-inhibitory concentration (IC50) in assay [5] is 124 nM. For the same molecule, the EC50 in [6] was determined as 124 nM.

For the molecule Ac-[αAllylPro]D[tBuAla][B5(5)]DTAAFT[PyrS2″][Phe(2-Cl)][Bta][Thr(ol)] (staple 1-4, 4-11) [I-1309], the IC50 in assay [5] turned out to be 59 nM. The same molecule came in with a 50% effective concentration (EC50) in assay [6] of 59 nM.

Molecule Ac-[αAllylPro]D[tBuAla][B5(5)]DDAAFL[PyrS2″][Phe(2-Cl)][Bta][dT]-NH2 (staple 1-4, 4-11) [I-1035] showed a DLD1 reporter assay Abs IC50 in assay [1] above 20000 nM. Besides, the figures for the 50% inhibitory concentration (IC50) (with Bcat-Halo [9]; in assay [10]; in the assay with Bcat-Halo [11]) were 10200 nM, 21 nM and 10200 nM, respectively. Also, the EC50 in assay [12] worked out at 21 nM.

B4: I-1904 (peptide)
peptide: Ac-[αAllylPro]D[tBuAla][B5(12)]D[Phe(3-COOH)]AAFL[PyrS2(4)][Phe(2-Cl)][Bta]N-NH2
modifications: staple 1-4, 4-11; not fully specified; printed as Ac-PL3-Asp-Npg-B5-Asp-3COOHF-Ala-Ala-Phe-Leu-PyrS2-2C1F-BztA-Asn-NH2; reading uncertain
Molecule B4 displayed a half-inhibitory concentration (IC50) in [8] of 15 nM.

On to Ac-[αAllylPro]D[Cha][B5(5)]DDAAFN[PyrS2″][Phe(2-Cl)][Bta]S-NH2 (staple 1-4, 4-11) [I-1046], for which the results for the half-maximal inhibitory concentration (IC50) (in assay [13]; with Bcat-Halo [11]) were 5 nM and 20500 nM, respectively. Further, in assay [12], the half-maximal effective concentration (EC50) is 5 nM.

In turn, Ac-[αAllylPro]D[tBuAla][B5(4)]D[Phe(3-COOH)]AAFF[PyrS2″][Phe(2-CF3)][Bta][Thr(ol)] (staple 1-4; staple 4-11 (inferred)) [I-1343] came in with a 50% inhibitory concentration (IC50) in assay [14] of 150 nM. The molecule further came in with an EC50 in [6] of 150 nM.

Turning to Ac-[αAllylPro]D[tBuAla][B5(5)]DDAAFF[PyrS2″][Phe(2-Cl)][Bta][Thr(ol)] (staple 1-4, 4-11) [I-1311], the half-maximal inhibitory concentration (IC50) in assay [5] turned out to be 38 nM. The same molecule came in with an EC50 in assay [6] of 38 nM.

Take Ac-[αAllylPro]D[tBuAla][B5(5)]DDAAFL[PyrS2][3Thi][Bta][Thr(ol)] (staple 1-4, 4-11) [I-1302]: in [5], the IC50 is 45 nM. Further, in assay [7], the EC50 stood at 45 nM.

Take Ac-[αAllylPro]D[tBuAla][B5(5)]DDAAFF[PyrS2][3Thi][Bta][Thr(ol)] (staple 1-4, 4-11) [I-1303]: the half-inhibitory concentration (IC50) in assay [5] turned out to be 86 nM. In assay [7], the EC50 is 86 nM.

B5: I-1890 (peptide)
peptide: Ac-[αAllylPro]D[tBuAla][B5(5)]DRAAFN[PyrS2][3Thi][Bta]Q-NH2
modifications: staple 1-4, 4-11; not fully specified; printed as Ac-PL3-Asp-Npg-B5-Asp-Arg-Ala-Ala-Phe-Asn-PyrS2-3Thi-BztA-Gln-NH2
In [8], B5 had an IC50 of 31 nM.

B6: I-1910 (peptide)
peptide: Ac-[αAllylPro]D[tBuAla][B5(12)]D[Phe(3-COOH)]HAFL[PyrS2(4)][3Thi][Bta]F-NH2
modifications: staple 1-4, 4-11; not fully specified; printed as Ac-PL3-Asp-Npg-B5-Asp-3COOHF-His-Ala-Phe-Leu-PyrS2-3Thi-BztA-Phe-NH2; reading uncertain
For B6, the IC50 in [8] is 17 nM.

Molecule Ac-[αAllylPro]E[tBuAla][B5(5)]DDAAFN[PyrS2″][Phe(2-Cl)][Bta][dT]-NH2 (staple 1-4, 4-11) [I-1029] gave a DLD1 reporter assay Abs IC50 in assay [1] above 20000 nM. The values for the IC50 (with Bcat-Halo [9]; in assay [10]; with Bcat-Halo [11]) were above 20000 nM, 823 nM and above 20000 nM, respectively. Moreover, the concentration for a half-maximal effect (EC50) in assay [12] stood at 823 nM.
